# B1: camel VHH α-LYS3 (anti-lysozyme) (VHH)
# VHH: DVQLQASGGGSVQAGGSLRLSCAASGYTIGPYCMGWFRQAPGKEREGVAAINMGGGITYYADSVKGRFTISQDNAKNTVYLLMNSLEPEDTAIYYCAADSTIYASYYECGHGLSTGGYGYDSWGQGTQVTVSS
# notes: also called LYS3 VHH; pHEN4-αLYS3
# B2: camel VHH α-LYS2 (anti-lysozyme) (VHH)
# VHH: EVQLQASGGGSVQAGQSLRLSCATSGATSSSNCMGWFRQAPGKEREGVAVIDTGRGNTAYADSVQGRLTISLDNAKNTLYLQMNSLKPEDTAMYYCAADTSTWYRGYCGTNPNYFSYWGQGTQVTVSS
# notes: also called LYS2 VHH; pHEN4-αLYS2
# B3: camel VHH αTT2 (anti-tetanus toxoid) (VHH)
# VHH: EVQLQASGGGSVQAGGSLRLSCTAANYAFDSKTVGWFRQVPGKEREGVAGISSGGSTTAYSDSVKGRYTVSLENAKNTVYLLIDNLQPEDTAIYYCAGVSGWRGRQWLLLAETYRFWGQGTQVTVSS
# Assays:
# Protein A = molecular target: T1, Protein A (UniProt P38507 37-477); test: Protein A-Sepharose chromatography
# T1 construct: also called Protein A-SEPHAROSE
# Hen Egg Lysozyme = molecular target: T2, Hen Egg Lysozyme (hen, UniProt P00698 19-147); test: inhibition ELISA, binding competed with free antigen
# T2 construct: also called HEL
# [1] = molecular target: T3, recombinant C fragment of tetanus neurotoxin (Clostridium tetani, UniProt P04958 865-1315); test: ELISA, bacterial extract
# T3 construct: domain: C fragment
# T3 sequence: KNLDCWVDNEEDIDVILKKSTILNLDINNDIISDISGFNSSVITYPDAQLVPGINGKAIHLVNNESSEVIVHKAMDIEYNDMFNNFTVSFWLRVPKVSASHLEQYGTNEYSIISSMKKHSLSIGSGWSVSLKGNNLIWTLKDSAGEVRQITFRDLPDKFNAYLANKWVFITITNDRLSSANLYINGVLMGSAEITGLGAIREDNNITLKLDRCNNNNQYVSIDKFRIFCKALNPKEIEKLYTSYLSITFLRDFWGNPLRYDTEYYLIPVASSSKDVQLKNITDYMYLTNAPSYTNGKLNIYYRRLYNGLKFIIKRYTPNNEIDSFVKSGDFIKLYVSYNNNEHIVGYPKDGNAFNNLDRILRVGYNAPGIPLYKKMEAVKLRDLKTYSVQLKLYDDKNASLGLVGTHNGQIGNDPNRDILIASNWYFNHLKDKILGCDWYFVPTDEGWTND
Binder,binding result (Protein A),Ki (Hen Egg Lysozyme) [nM],binding result [1]
B1,no binding,~500,–
B2,–,~50,–
B3,–,–,no binding
